This experiment concerns the target human PKM2 Ag (M2 splice isoform of pyruvate kinase), purified (human, UniProt P14618 1-531). Put plainly: SPR. (In general: SPR reads the build-up and loss of mass on a sensor chip optically.)

Sequence of human PKM2 Ag (M2 splice isoform of pyruvate kinase), purified (P14618 whole entry, canonical isoform): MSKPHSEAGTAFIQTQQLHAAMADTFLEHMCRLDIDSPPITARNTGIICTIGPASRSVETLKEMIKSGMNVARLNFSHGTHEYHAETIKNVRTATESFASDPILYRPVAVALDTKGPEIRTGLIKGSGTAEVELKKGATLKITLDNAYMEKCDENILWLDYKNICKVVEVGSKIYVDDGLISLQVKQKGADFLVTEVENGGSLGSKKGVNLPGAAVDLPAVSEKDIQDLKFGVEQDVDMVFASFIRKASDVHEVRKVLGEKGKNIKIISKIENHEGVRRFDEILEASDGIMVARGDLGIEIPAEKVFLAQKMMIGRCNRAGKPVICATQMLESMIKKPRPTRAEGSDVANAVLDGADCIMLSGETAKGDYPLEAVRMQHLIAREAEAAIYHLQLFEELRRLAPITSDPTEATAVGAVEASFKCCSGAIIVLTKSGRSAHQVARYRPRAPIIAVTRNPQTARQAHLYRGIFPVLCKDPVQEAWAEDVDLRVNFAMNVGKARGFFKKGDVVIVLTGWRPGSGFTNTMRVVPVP

B1: human full-length H103 Ab (anti-PKM2 antibody, IgG1) (antibody, V domains shown)
VH: QVQLQESGPGLVRPSGTLSLICAVSGDSISSSIWWSWVRQSPGKGLEWIGYIYHNGNTYYNPSLESRVTISVDTSENQFSLKLSSVTAADTAVYYCARGYDSSGYYWTDDRYYFDYWGQGTLVTVSS
VL: NFMLTQPHSVSESPGKTVTISCTGSSGSIASNYVQWYQQRPGSAPTTVIYEDNQRPPGVPDRFSGSIDSSSNSASLTISALETEDEADYYCQSYDSRNIDVVFGGGTKVTVL
What is called Kd is the equilibrium constant for the complex coming apart. Higher therefore signals a looser complex. B1 yielded a Kd of 0.228 nM.

B2: Na2S2O4-cleaved HAP103 Ab (act-HAP103) (antibody, V domains shown)
VH: B1 VH
VL: B1 VL
As to B2, the Kd came to 0.632 nM.

(Values after article PMC10929192 (2024).)
